Biological target: T1, Chp2 chromodomain (recombinant Chp2-CD, wild type) (S. pombe)
T1 sequence (O42934 whole entry, looked up): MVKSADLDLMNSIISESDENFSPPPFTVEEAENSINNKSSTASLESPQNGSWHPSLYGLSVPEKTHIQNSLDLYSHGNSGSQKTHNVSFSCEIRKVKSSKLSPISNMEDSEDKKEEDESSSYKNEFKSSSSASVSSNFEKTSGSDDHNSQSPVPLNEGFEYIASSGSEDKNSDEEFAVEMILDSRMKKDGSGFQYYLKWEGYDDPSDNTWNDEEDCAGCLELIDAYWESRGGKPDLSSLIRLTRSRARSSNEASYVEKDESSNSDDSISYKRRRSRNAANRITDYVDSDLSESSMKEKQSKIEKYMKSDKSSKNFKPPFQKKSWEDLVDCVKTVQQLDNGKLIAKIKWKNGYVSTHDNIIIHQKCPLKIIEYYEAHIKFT
Test: ITC; MicroCal VP-ITC, 20°C; Chp2-CD protein in 20 mM KPO4 pH 6.8, 100 mM NaCl; H3K9me3 peptide injected into the protein in 1-μl aliquots at 3-min intervals

Q: Which Kd does the source give for ARTKQTARKSTGGKAPRY (trimethyl-lysine at position 9 (Lys[Me]3)) [K9-trimethylated histone H3 (H3K9me3) peptide (1–18)] here?
A: 4.37 µM
